# Starred links: 1 amine or outer side, 2 acyl side, 3 side chain; linkers in the order of their positions; H or OH if unused. Positions of bridges follow the written chain, without caps; N, C: chain ends. Non-standard residues stand in square brackets, D forms with d. Primed or numbered codes have the meaning given here. PyrS2(3) = (S)-3-amino-1-((pent-4-en-1-yloxy)carbonyl)pyrrolidine-3-carboxylic acid, stapling residue, C=CCCCOC(=O)N1CC[C@@](N[*:1])(C(=O)[*:2])C1; PyrS2″ = (S)-3-amino-1-((pent-4-en-1-yloxy)carbonyl)pyrrolidine-3-carboxylic acid (stapling residue), C=CCCCOC(=O)N1CC[C@@](N[*:1])(C(=O)[*:2])C1; B5(24) = 2-amino-2-(pent-4-en-1-yl)hept-6-enoic acid, 2,2-bis(4-pentenyl)glycine (stitching residue), C=CCCCC(CCCC=C)(N[*:1])C(=O)[*:2]; B5(4) = 2,2-bis(4-pentenyl)glycine = 2-amino-2-(pent-4-en-1-yl)hept-6-enoic acid (stitching residue), C=CCCCC(CCCC=C)(N[*:1])C(=O)[*:2]; B5(20) = 2-amino-2-(pent-4-en-1-yl)hept-6-enoic acid = bis(4-pentenyl)glycine, stitching residue, C=CCCCC(CCCC=C)(N[*:1])C(=O)[*:2]; TfeGA = (S)-2-amino-3-((carboxymethyl)(2,2,2-trifluoroethyl)amino)propanoic acid, O=C([C@H](CN(CC(=O)[*:3])CC(F)(F)F)N[*:1])[*:2]; PyrS2 = (S)-3-amino-1-((pent-4-en-1-yloxy)carbonyl)pyrrolidine-3-carboxylic acid, C=CCCCOC(=O)N1CC[C@@](N[*:1])(C(=O)[*:2])C1; MePpzAsn = (S)-2-amino-4-(4-methylpiperazin-1-yl)-4-oxobutanoic acid, CN1CCN(C(=O)C[C@H](N[*:1])C(=O)[*:2])CC1; F2PipNva = (S)-2-amino-5-(4,4-difluoropiperidin-1-yl)pentanoic acid, O=C([C@H](CCCN1CCC(F)(F)CC1)N[*:1])[*:2]; MorphAsn = (S)-2-amino-4-morpholino-4-oxobutanoic acid, O=C(C[C@H](N[*:1])C(=O)[*:2])N1CCOCC1; B5(3) = 2,2-bis(4-pentenyl)glycine (stitching residue), C=CCCCC(CCCC=C)(N[*:1])C(=O)[*:2]; B5″ = 2,2-bis(4-pentenyl)glycine, stitching residue, C=CCCCC(CCCC=C)(N[*:1])C(=O)[*:2]; Phe(3-CF3) = N[C@@H](Cc1cccc(C(F)(F)F)c1)C(=O)O; Phe(F5) = N[C@@H](Cc1c(F)c(F)c(F)c(F)c1F)C(=O)O; Nva(5-morpholino) = N[C@@H](CCCN1CCOCC1)C(=O)O; Phe(3-COOH) = N[C@@H](Cc1cccc(C(=O)O)c1)C(=O)O; 2F3MeF = Cc1cccc(C[C@H](N[*:1])C(=O)[*:2])c1F; Phe(2-CONH2) = NC(=O)c1ccccc1C[C@H](N)C(=O)O; Phe(3-CN) = N#Cc1cccc(C[C@H](N)C(=O)O)c1; Phe(4-CN) = N#Cc1ccc(C[C@H](N)C(=O)O)cc1; Phe(2-CN) = N#Cc1ccccc1C[C@H](N)C(=O)O; Phe(2-Cl) = N[C@@H](Cc1ccccc1Cl)C(=O)O; Bta = N[C@@H](Cc1csc2ccccc12)C(=O)O; Lys(iPr) = CC(C)NCCCC[C@H](N)C(=O)O; αAllylPro = C=CC[C@@]1(C(=O)O)CCCN1; tBuAla = CC(C)(C)C[C@H](N)C(=O)O; 3Thi = N[C@@H](Cc1ccsc1)C(=O)O; Cha = N[C@@H](CC1CCCCC1)C(=O)O; S8 = C=CCCCCCC[C@](C)(N)C(=O)O; R5 = C=CCCC[C@@](C)(N)C(=O)O; hSer = N[C@@H](CCO)C(=O)O
# T1: B-cat-Halo (UniProt P35222 1-781)
# T1 sequence (looked up): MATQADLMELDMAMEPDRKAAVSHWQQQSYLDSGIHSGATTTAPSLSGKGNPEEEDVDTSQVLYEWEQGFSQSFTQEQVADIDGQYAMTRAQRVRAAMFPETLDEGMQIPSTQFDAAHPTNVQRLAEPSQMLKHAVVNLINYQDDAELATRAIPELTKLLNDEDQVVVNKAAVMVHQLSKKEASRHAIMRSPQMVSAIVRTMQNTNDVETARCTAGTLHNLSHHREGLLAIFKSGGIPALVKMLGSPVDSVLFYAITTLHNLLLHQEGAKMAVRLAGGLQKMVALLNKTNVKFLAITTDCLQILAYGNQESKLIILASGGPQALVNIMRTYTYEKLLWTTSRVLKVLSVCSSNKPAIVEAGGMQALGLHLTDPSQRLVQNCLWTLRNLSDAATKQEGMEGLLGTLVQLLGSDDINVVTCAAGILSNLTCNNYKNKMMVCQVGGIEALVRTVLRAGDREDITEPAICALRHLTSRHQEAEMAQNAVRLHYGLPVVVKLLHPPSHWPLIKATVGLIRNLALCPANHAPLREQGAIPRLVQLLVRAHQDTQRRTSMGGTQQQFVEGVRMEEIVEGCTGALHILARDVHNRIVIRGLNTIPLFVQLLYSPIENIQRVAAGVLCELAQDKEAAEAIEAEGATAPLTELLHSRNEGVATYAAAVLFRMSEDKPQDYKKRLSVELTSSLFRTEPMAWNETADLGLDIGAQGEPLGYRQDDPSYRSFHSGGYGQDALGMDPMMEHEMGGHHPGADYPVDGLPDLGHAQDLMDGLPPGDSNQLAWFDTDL
# T2: B-cat-Halo (UniProt P35222 1-781)
# T2 sequence (looked up): T1 sequence (looked up)
# T3: B-cat-Halo (beta-catenin HaloTag construct expressed in HEK293 cells) (UniProt P35222 1-781)
# T3 sequence (looked up): T1 sequence (looked up)
# T4: full-length beta-Catenin (Uniprot ID P35222) (Homo sapiens (Human), UniProt P35222 1-781)
# T4 construct: also called bCat; B-Catenin
# T4 sequence: T1 sequence (looked up)
# B1: I-507 (peptide)
# peptide: XDAXDEAAFQXFXT
# modifications: not fully specified; Ac-PL3-Asp-Ala-B5-Asp-Glu-Ala-Ala-Phe-Gln-S8-Phe-BztA-Thr-NH2; stapled by olefin metathesis (PL3-B5 and B5-S8)
# B2: I-527 (peptide)
# peptide: XDIXDEAAFQXFXQ
# modifications: not fully specified; Ac-PL3-Asp-Ile-B5-Asp-Glu-Ala-Ala-Phe-Gln-S8-2OMeF-BztA-Gln-NH2; stapled by olefin metathesis (PL3-B5 and B5-S8)
# B3: I-528 (peptide)
# peptide: XDIXDEAAFQXFXQ
# modifications: not fully specified; Ac-PL3-Asp-Ile-B5-Asp-Glu-Ala-Ala-Phe-Gln-S8-2OMeF-BztA-Gln-NH2; stapled by olefin metathesis (PL3-B5 and B5-S8)
# Biological target: T1, B-cat-Halo
# Assay: cell-based or functional assay
row,Binder,NanoBRET Abs IC50
1,"Ac-[αAllylPro]D[Cha][B5(3)]DDAA[Phe(3-CF3)]S[PyrS2″]F[Bta]Q-NH2 (staple 1-4, 4-11) [I-1125]",> 20 µM
2,"Ac-[αAllylPro]D[tBuAla][B5(24)]DDAAFN[PyrS2″][Phe(2-Cl)][Bta][Lys(iPr)]-NH2 (staple 1-4, 4-11) [I-1130]",7.6 µM
3,"Ac-[αAllylPro]D[tBuAla][B5(24)]DD[Lys(iPr)]AFN[PyrS2″][Phe(2-Cl)][Bta]Q-NH2 (staple 1-4, 4-11) [I-1131]",18.8 µM
4,"Ac-[αAllylPro]D[tBuAla][B5(24)]DDA[Lys(iPr)]FN[PyrS2″][Phe(2-Cl)][Bta]Q-NH2 (staple 1-4, 4-11) [I-1132]",> 20 µM
5,"Ac-[αAllylPro]D[Cha][B5(24)]DDAAFS[PyrS2″][Phe(2-Cl)][Bta][dT]-NH2 (staple 1-4, 4-11) [I-1136]",14.9 µM
6,"Ac-[αAllylPro]D[Cha][B5(24)]DDAAFS[PyrS2″][Phe(2-Cl)][Bta][hSer]-NH2 (staple 1-4, 4-11) [I-1137]",12 µM
7,"Ac-[αAllylPro]D[Cha][B5(24)]DDAAFS[PyrS2″][Phe(2-Cl)][Bta]L-NH2 (staple 1-4, 4-11) [I-1138]",19.8 µM
8,"Ac-[αAllylPro]D[Cha][B5(24)]DDAAFL[PyrS2″][Phe(2-Cl)][Bta]T-NH2 (staple 1-4, 4-11) [I-1139]",18 µM

# Biological target: T2, B-cat-Halo
# Assay: cell-based or functional assay
row,Binder,NanoBRET Abs IC50
1,"Ac-[αAllylPro]N[tBuAla][B5(4)]DT[Lys(iPr)]AFN[PyrS2]F[Bta]Q-NH2 (staple 1-4, 4-11) [I-1602]",> 20 µM
2,"Ac-[αAllylPro]D[tBuAla][B5(4)]D[TfeGA]AAFT[PyrS2][Phe(2-Cl)][Bta][F2PipNva]-NH2 (staple 1-4, 4-11) [I-1607]",11.9 µM
3,"Ac-[αAllylPro]D[tBuAla][B5(4)]D[Phe(3-COOH)]AAFL[PyrS2][2F3MeF][Bta][F2PipNva]-NH2 (staple 1-4, 4-11) [I-1608]",15.1 µM
4,"Ac-[αAllylPro]D[tBuAla][B5(3)]D[TfeGA]AAFT[PyrS2][Phe(2-Cl)][Bta][Nva(5-morpholino)]-NH2 (staple 1-4, 4-11) [I-1609]",6.7 µM
5,"Ac-[αAllylPro]D[tBuAla][B5(3)]D[Phe(3-COOH)]AAFL[PyrS2][2F3MeF][Bta][Nva(5-morpholino)]-NH2 (staple 1-4, 4-11) [I-1610]",4.1 µM
6,"Ac-[αAllylPro]D[tBuAla][B5(3)]D[TfeGA]AAFT[PyrS2″][Phe(2-Cl)][Bta][MePpzAsn]-NH2 (staple 1-4, 4-11) [I-1611]",9.8 µM
7,"Ac-[αAllylPro]D[tBuAla][B5(3)]D[TfeGA]AAFT[PyrS2″][Phe(2-Cl)][Bta][MorphAsn]-NH2 (staple 1-4, 4-11) [I-1613]",5.2 µM
8,"Ac-[αAllylPro]D[tBuAla][B5(3)]D[Phe(3-COOH)]AAFL[PyrS2″][2F3MeF][Bta][MorphAsn]-NH2 (staple 1-4, 4-11) [I-1614]",6.4 µM

# Biological target: T3, B-cat-Halo (beta-catenin HaloTag …)
# Assay: cell-based or functional assay
row,Binder,NanoBRET Abs IC50
1,Ac-PD[tBuAla][R5]DDAAFL[PyrS2(3)][3Thi][Bta]Q-NH2 (staple 4-11) [I-1181],> 20 µM
2,"Ac-[αAllylPro]D[tBuAla][B5″]DDAAFL[PyrS2(3)][Phe(F5)][Bta]Q-NH2 (staple 1-4, 4-11) [I-1185]",26.9 µM
3,"Ac-[αAllylPro]D[tBuAla][B5″]DDAAFN[PyrS2(3)][Phe(F5)][Bta]Q-NH2 (staple 1-4, 4-11) [I-1186]",23.6 µM
4,"Ac-[αAllylPro]D[Cha][B5″]DDAAFT[PyrS2(3)][Phe(F5)][Bta]S-NH2 (staple 1-4, 4-11) [I-1187]",28.6 µM
5,"Ac-[αAllylPro]D[tBuAla][B5″]DDAAFL[S8][3Thi][Bta]Q-NH2 (staple 1-4, 4-11) [I-1188]",7.2 µM
6,"Ac-[αAllylPro]D[tBuAla][B5″]DDAAFL[S8][3Thi][Bta]H-NH2 (staple 1-4, 4-11) [I-1195]",16.2 µM
7,"Ac-[αAllylPro]D[tBuAla][B5″]DDAA[Phe(2-CN)]L[PyrS2(3)][3Thi][Bta]Q-NH2 (staple 1-4, 4-11) [I-1200]",> 20 µM
8,"Ac-[αAllylPro]D[tBuAla][B5″]DDAA[Phe(3-CN)]L[PyrS2(3)][3Thi][Bta]Q-NH2 (staple 1-4, 4-11) [I-1201]",19.6 µM
9,"Ac-[αAllylPro]D[tBuAla][B5″]DDAA[Phe(4-CN)]L[PyrS2(3)][3Thi][Bta]Q-NH2 (staple 1-4, 4-11) [I-1202]",16.3 µM

# Biological target: T4, full-length beta-Catenin (Uniprot ID …)
# Assay: FP competition: full-length beta-catenin 10 nM + 5FAM-TCF4(10-53) 10 nM
# Protocol: The plate was incubated protected from light for 60 minutes at 20° C. prior to read. Reads were performed on a CLARIOstar plate reader (BMG Labtech) in duplicate, and data were fitted to a 1:1 binding model with hill slope using an in-house script. All provided concentrations are final concentrations.
row,Binder,IC50
1,B1,0.192 µM
2,"Ac-[αAllylPro]DA[B5(20)]DEAAFQ[S8]F[Bta]T-NH2 (staple 1-4, 4-11; also: later-eluting HPLC peak of staple isomers) [I-508]",0.073 µM
3,B2,0.098 µM
4,B3,0.063 µM
5,"Ac-[αAllylPro]DA[B5(20)]DEAAFN[S8][Phe(2-CONH2)][Bta]H-NH2 (staple 1-4, 4-11, Stapled peptide composition) [I-513]",0.143 µM
